Assay results published in patent US20230416330A1, “Optimized GIP Peptide Analogues” (Antag Therapeutics ApS, priority 2019, published 2023).
No end group written: not given here. *: point of attachment. C16 diacid = O=C(O)CCCCCCCCCCCCCCC(=O)*

B1: AT739 (peptide)
peptide: EGTFISDYSK(C16 diacid)AMDKIHQQDFVEWLLAQKPSSGAPPPS-OH
modifications: N-terminus assumed
SMILES: CC[C@H](C)[C@H](NC(=O)[C@H](CCCCN)NC(=O)[C@H](CC(=O)O)NC(=O)[C@H](CCSC)NC(=O)[C@H](C)NC(=O)[C@H](CCCCNC(=O)CCCCCCCCCCCCCCC(=O)O)NC(=O)[C@H](CO)NC(=O)[C@H](Cc1ccc(O)cc1)NC(=O)[C@H](CC(=O)O)NC(=O)[C@H](CO)NC(=O)[C@@H](NC(=O)[C@H](Cc1ccccc1)NC(=O)[C@@H](NC(=O)CNC(=O)[C@@H](N)CCC(=O)O)[C@@H](C)O)[C@@H](C)CC)C(=O)N[C@@H](Cc1c[nH]cn1)C(=O)N[C@@H](CCC(N)=O)C(=O)N[C@@H](CCC(N)=O)C(=O)N[C@@H](CC(=O)O)C(=O)N[C@@H](Cc1ccccc1)C(=O)N[C@H](C(=O)N[C@@H](CCC(=O)O)C(=O)N[C@@H](Cc1c[nH]c2ccccc12)C(=O)N[C@@H](CC(C)C)C(=O)N[C@@H](CC(C)C)C(=O)N[C@@H](C)C(=O)N[C@@H](CCC(N)=O)C(=O)N[C@@H](CCCCN)C(=O)N1CCC[C@H]1C(=O)N[C@@H](CO)C(=O)N[C@@H](CO)C(=O)NCC(=O)N[C@@H](C)C(=O)N1CCC[C@H]1C(=O)N1CCC[C@H]1C(=O)N1CCC[C@H]1C(=O)N[C@@H](CO)C(=O)O)C(C)C
B2: AT740 (peptide)
peptide: EGTFISDYSIK(C16 diacid)MDKIHQQDFVEWLLAQKPSSGAPPPS-OH
modifications: N-terminus assumed
SMILES: CC[C@H](C)[C@H](NC(=O)[C@H](CCCCN)NC(=O)[C@H](CC(=O)O)NC(=O)[C@H](CCSC)NC(=O)[C@H](CCCCNC(=O)CCCCCCCCCCCCCCC(=O)O)NC(=O)[C@@H](NC(=O)[C@H](CO)NC(=O)[C@H](Cc1ccc(O)cc1)NC(=O)[C@H](CC(=O)O)NC(=O)[C@H](CO)NC(=O)[C@@H](NC(=O)[C@H](Cc1ccccc1)NC(=O)[C@@H](NC(=O)CNC(=O)[C@@H](N)CCC(=O)O)[C@@H](C)O)[C@@H](C)CC)[C@@H](C)CC)C(=O)N[C@@H](Cc1c[nH]cn1)C(=O)N[C@@H](CCC(N)=O)C(=O)N[C@@H](CCC(N)=O)C(=O)N[C@@H](CC(=O)O)C(=O)N[C@@H](Cc1ccccc1)C(=O)N[C@H](C(=O)N[C@@H](CCC(=O)O)C(=O)N[C@@H](Cc1c[nH]c2ccccc12)C(=O)N[C@@H](CC(C)C)C(=O)N[C@@H](CC(C)C)C(=O)N[C@@H](C)C(=O)N[C@@H](CCC(N)=O)C(=O)N[C@@H](CCCCN)C(=O)N1CCC[C@H]1C(=O)N[C@@H](CO)C(=O)N[C@@H](CO)C(=O)NCC(=O)N[C@@H](C)C(=O)N1CCC[C@H]1C(=O)N1CCC[C@H]1C(=O)N1CCC[C@H]1C(=O)N[C@@H](CO)C(=O)O)C(C)C
B3: AT741 (peptide)
peptide: EGTFISDYSIAMDK(C16 diacid)IHQQDFVEWLLAQKPSSGAPPPS-OH
modifications: N-terminus assumed
SMILES: CC[C@H](C)[C@H](NC(=O)[C@H](CO)NC(=O)[C@H](Cc1ccc(O)cc1)NC(=O)[C@H](CC(=O)O)NC(=O)[C@H](CO)NC(=O)[C@@H](NC(=O)[C@H](Cc1ccccc1)NC(=O)[C@@H](NC(=O)CNC(=O)[C@@H](N)CCC(=O)O)[C@@H](C)O)[C@@H](C)CC)C(=O)N[C@@H](C)C(=O)N[C@@H](CCSC)C(=O)N[C@@H](CC(=O)O)C(=O)N[C@@H](CCCCNC(=O)CCCCCCCCCCCCCCC(=O)O)C(=O)N[C@H](C(=O)N[C@@H](Cc1c[nH]cn1)C(=O)N[C@@H](CCC(N)=O)C(=O)N[C@@H](CCC(N)=O)C(=O)N[C@@H](CC(=O)O)C(=O)N[C@@H](Cc1ccccc1)C(=O)N[C@H](C(=O)N[C@@H](CCC(=O)O)C(=O)N[C@@H](Cc1c[nH]c2ccccc12)C(=O)N[C@@H](CC(C)C)C(=O)N[C@@H](CC(C)C)C(=O)N[C@@H](C)C(=O)N[C@@H](CCC(N)=O)C(=O)N[C@@H](CCCCN)C(=O)N1CCC[C@H]1C(=O)N[C@@H](CO)C(=O)N[C@@H](CO)C(=O)NCC(=O)N[C@@H](C)C(=O)N1CCC[C@H]1C(=O)N1CCC[C@H]1C(=O)N1CCC[C@H]1C(=O)N[C@@H](CO)C(=O)O)C(C)C)[C@@H](C)CC
B4: AT742 (peptide)
peptide: EGTFISDYSIAMDKK(C16 diacid)HQQDFVEWLLAQKPSSGAPPPS-OH
modifications: N-terminus assumed
SMILES: CC[C@H](C)[C@H](NC(=O)[C@H](CO)NC(=O)[C@H](Cc1ccc(O)cc1)NC(=O)[C@H](CC(=O)O)NC(=O)[C@H](CO)NC(=O)[C@@H](NC(=O)[C@H](Cc1ccccc1)NC(=O)[C@@H](NC(=O)CNC(=O)[C@@H](N)CCC(=O)O)[C@@H](C)O)[C@@H](C)CC)C(=O)N[C@@H](C)C(=O)N[C@@H](CCSC)C(=O)N[C@@H](CC(=O)O)C(=O)N[C@@H](CCCCN)C(=O)N[C@@H](CCCCNC(=O)CCCCCCCCCCCCCCC(=O)O)C(=O)N[C@@H](Cc1c[nH]cn1)C(=O)N[C@@H](CCC(N)=O)C(=O)N[C@@H](CCC(N)=O)C(=O)N[C@@H](CC(=O)O)C(=O)N[C@@H](Cc1ccccc1)C(=O)N[C@H](C(=O)N[C@@H](CCC(=O)O)C(=O)N[C@@H](Cc1c[nH]c2ccccc12)C(=O)N[C@@H](CC(C)C)C(=O)N[C@@H](CC(C)C)C(=O)N[C@@H](C)C(=O)N[C@@H](CCC(N)=O)C(=O)N[C@@H](CCCCN)C(=O)N1CCC[C@H]1C(=O)N[C@@H](CO)C(=O)N[C@@H](CO)C(=O)NCC(=O)N[C@@H](C)C(=O)N1CCC[C@H]1C(=O)N1CCC[C@H]1C(=O)N1CCC[C@H]1C(=O)N[C@@H](CO)C(=O)O)C(C)C
B5: AT744 (peptide)
peptide: EGTFISDYSIAMDKIHQQDFVEWLLAQKPSSGAPPPSK(C16 diacid)-OH
modifications: N-terminus assumed
SMILES: CC[C@H](C)[C@H](NC(=O)[C@H](CO)NC(=O)[C@H](Cc1ccc(O)cc1)NC(=O)[C@H](CC(=O)O)NC(=O)[C@H](CO)NC(=O)[C@@H](NC(=O)[C@H](Cc1ccccc1)NC(=O)[C@@H](NC(=O)CNC(=O)[C@@H](N)CCC(=O)O)[C@@H](C)O)[C@@H](C)CC)C(=O)N[C@@H](C)C(=O)N[C@@H](CCSC)C(=O)N[C@@H](CC(=O)O)C(=O)N[C@@H](CCCCN)C(=O)N[C@H](C(=O)N[C@@H](Cc1c[nH]cn1)C(=O)N[C@@H](CCC(N)=O)C(=O)N[C@@H](CCC(N)=O)C(=O)N[C@@H](CC(=O)O)C(=O)N[C@@H](Cc1ccccc1)C(=O)N[C@H](C(=O)N[C@@H](CCC(=O)O)C(=O)N[C@@H](Cc1c[nH]c2ccccc12)C(=O)N[C@@H](CC(C)C)C(=O)N[C@@H](CC(C)C)C(=O)N[C@@H](C)C(=O)N[C@@H](CCC(N)=O)C(=O)N[C@@H](CCCCN)C(=O)N1CCC[C@H]1C(=O)N[C@@H](CO)C(=O)N[C@@H](CO)C(=O)NCC(=O)N[C@@H](C)C(=O)N1CCC[C@H]1C(=O)N1CCC[C@H]1C(=O)N1CCC[C@H]1C(=O)N[C@@H](CO)C(=O)N[C@@H](CCCCNC(=O)CCCCCCCCCCCCCCC(=O)O)C(=O)O)C(C)C)[C@@H](C)CC
B6: AT745 (peptide)
peptide: EGTFISDYSIAMDKIK(C16 diacid)QQAFVEWLLAQKPSSGAPPPS-OH
modifications: N-terminus assumed
SMILES: CC[C@H](C)[C@H](NC(=O)[C@H](CO)NC(=O)[C@H](Cc1ccc(O)cc1)NC(=O)[C@H](CC(=O)O)NC(=O)[C@H](CO)NC(=O)[C@@H](NC(=O)[C@H](Cc1ccccc1)NC(=O)[C@@H](NC(=O)CNC(=O)[C@@H](N)CCC(=O)O)[C@@H](C)O)[C@@H](C)CC)C(=O)N[C@@H](C)C(=O)N[C@@H](CCSC)C(=O)N[C@@H](CC(=O)O)C(=O)N[C@@H](CCCCN)C(=O)N[C@H](C(=O)N[C@@H](CCCCNC(=O)CCCCCCCCCCCCCCC(=O)O)C(=O)N[C@@H](CCC(N)=O)C(=O)N[C@@H](CCC(N)=O)C(=O)N[C@@H](C)C(=O)N[C@@H](Cc1ccccc1)C(=O)N[C@H](C(=O)N[C@@H](CCC(=O)O)C(=O)N[C@@H](Cc1c[nH]c2ccccc12)C(=O)N[C@@H](CC(C)C)C(=O)N[C@@H](CC(C)C)C(=O)N[C@@H](C)C(=O)N[C@@H](CCC(N)=O)C(=O)N[C@@H](CCCCN)C(=O)N1CCC[C@H]1C(=O)N[C@@H](CO)C(=O)N[C@@H](CO)C(=O)NCC(=O)N[C@@H](C)C(=O)N1CCC[C@H]1C(=O)N1CCC[C@H]1C(=O)N1CCC[C@H]1C(=O)N[C@@H](CO)C(=O)O)C(C)C)[C@@H](C)CC
B7: AT746 (peptide)
peptide: EGTFISDYAIAMDKIK(C16 diacid)QQDFVEWLLAQKPSSGAPPPS-OH
modifications: N-terminus assumed
SMILES: CC[C@H](C)[C@H](NC(=O)[C@H](C)NC(=O)[C@H](Cc1ccc(O)cc1)NC(=O)[C@H](CC(=O)O)NC(=O)[C@H](CO)NC(=O)[C@@H](NC(=O)[C@H](Cc1ccccc1)NC(=O)[C@@H](NC(=O)CNC(=O)[C@@H](N)CCC(=O)O)[C@@H](C)O)[C@@H](C)CC)C(=O)N[C@@H](C)C(=O)N[C@@H](CCSC)C(=O)N[C@@H](CC(=O)O)C(=O)N[C@@H](CCCCN)C(=O)N[C@H](C(=O)N[C@@H](CCCCNC(=O)CCCCCCCCCCCCCCC(=O)O)C(=O)N[C@@H](CCC(N)=O)C(=O)N[C@@H](CCC(N)=O)C(=O)N[C@@H](CC(=O)O)C(=O)N[C@@H](Cc1ccccc1)C(=O)N[C@H](C(=O)N[C@@H](CCC(=O)O)C(=O)N[C@@H](Cc1c[nH]c2ccccc12)C(=O)N[C@@H](CC(C)C)C(=O)N[C@@H](CC(C)C)C(=O)N[C@@H](C)C(=O)N[C@@H](CCC(N)=O)C(=O)N[C@@H](CCCCN)C(=O)N1CCC[C@H]1C(=O)N[C@@H](CO)C(=O)N[C@@H](CO)C(=O)NCC(=O)N[C@@H](C)C(=O)N1CCC[C@H]1C(=O)N1CCC[C@H]1C(=O)N1CCC[C@H]1C(=O)N[C@@H](CO)C(=O)O)C(C)C)[C@@H](C)CC

Target: T1, human GIP receptor (human, UniProt P48546 22-466)
T1 sequence (looked up): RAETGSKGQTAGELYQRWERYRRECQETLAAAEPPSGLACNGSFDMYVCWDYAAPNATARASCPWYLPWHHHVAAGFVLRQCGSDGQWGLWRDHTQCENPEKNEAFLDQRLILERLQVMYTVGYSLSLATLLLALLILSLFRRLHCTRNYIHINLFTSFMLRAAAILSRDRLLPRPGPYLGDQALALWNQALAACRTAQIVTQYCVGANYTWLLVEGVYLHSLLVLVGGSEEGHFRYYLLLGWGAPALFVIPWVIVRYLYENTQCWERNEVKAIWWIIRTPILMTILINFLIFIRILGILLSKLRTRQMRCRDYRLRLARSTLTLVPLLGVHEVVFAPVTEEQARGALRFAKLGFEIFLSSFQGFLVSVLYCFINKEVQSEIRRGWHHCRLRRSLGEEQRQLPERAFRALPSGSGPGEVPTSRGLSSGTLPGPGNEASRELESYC
Experiment: cell-based or functional assay

Question: B1 was tested. Which “nM (Kb, Gaddum assay, cAMP)” value did it give?
Answer: The value was 11 nM.

Question: And the “pKb (Gaddum assay, cAMP)” value?
Answer: Its value is 7.9.

Question: Which “nM (Kb, Gaddum assay, cAMP)” value does the source give for B2 here?
Answer: The value was 14 nM.

Question: And the “pKb (Gaddum assay, cAMP)” value?
Answer: Its value is 7.9.

Question: Which results are given for B3?
Answer: nM (Kb, Gaddum assay, cAMP): 11 nM; pKb (Gaddum assay, cAMP): 7.9

Question: For B4, which “nM (Kb, Gaddum assay, cAMP)” value is on record?
Answer: Its value is 32 nM.

Question: What about the “pKb (Gaddum assay, cAMP)” value of the same binder?
Answer: Its value is 7.5.

Question: B5 was tested. Which “nM (Kb, Gaddum assay, cAMP)” value did it give?
Answer: The value was 4.8 nM.

Question: What about the “pKb (Gaddum assay, cAMP)” value of the same binder?
Answer: The value was 8.3.

Question: How did the “nM (Kb, Gaddum assay, cAMP)” value turn out when B6 was run?
Answer: Its value is 0.49 nM.

Question: What about the “pKb (Gaddum assay, cAMP)” value of the same binder?
Answer: Its value is 9.3.

Question: Which results are given for B7?
Answer: nM (Kb, Gaddum assay, cAMP): 0.97 nM; pKb (Gaddum assay, cAMP): 9
